Laboratory results as given in the Immune Epitope Database (IEDB).

How the values were obtained:
HLA-A*30:01 = assay: IEDB peptide-MHC binding, purified MHC/competitive/fluorescence; filed as Kd, often an IC50 or EC50 that approximates it; ≥ and ≤ were set here for values at or beyond the usual limits of such assays
HLA-A*02:03 = assay: as above; conditions: source organism: Shigella flexneri 5 str. 8401
HLA-A*02:19 = assay: as above; conditions: source organism: Shigella flexneri 5 str. 8401
HLA-B*40:01 [1] = assay: as above; conditions: source organism: Shigella flexneri 5 str. 8401
HLA-B*14:02 = assay: as above; conditions: source organism: Shigella flexneri 5 str. 8401
HLA-B*53:01 = assay: as above; conditions: source organism: Shigella flexneri 5 str. 8401
HLA-B*08:01 = assay: as above
HLA-B*44:02 = assay: as above; conditions: source organism: Shigella flexneri 5 str. 8401
HLA-B*58:01 [2] = assay: as above; conditions: source organism: Shigella flexneri 5 str. 8401
HLA-A*29:02 = assay: as above; conditions: source organism: Shigella flexneri 5 str. 8401
HLA-B*07:02 [3] = assay: as above; conditions: source organism: Shigella flexneri 5 str. 8401
HLA-B*27:05 [4] = assay: as above; conditions: source organism: Shigella flexneri 5 str. 8401
HLA-A*11:01 [5] = assay: as above; conditions: source organism: Shigella flexneri 5 str. 8401
HLA-A*66:01 = assay: as above; conditions: source organism: Shigella flexneri 5 str. 8401
HLA-B*18:01 [6] = assay: as above; conditions: source organism: Shigella flexneri 5 str. 8401
HLA-A*03:01 [7] = assay: as above; conditions: source organism: Shigella flexneri 5 str. 8401
HLA-A*01:01 [8] = assay: as above; conditions: source organism: Shigella flexneri 5 str. 8401
HLA-B*15:17 [9] = assay: as above; conditions: source organism: Shigella flexneri 5 str. 8401
HLA-A*68:02 = assay: as above; conditions: source organism: Shigella flexneri 5 str. 8401
HLA-A*02:01 [10] = assay: as above; conditions: source organism: Shigella flexneri 5 str. 8401
HLA-B*51:01 [11] = assay: as above; conditions: source organism: Shigella flexneri 5 str. 8401
HLA-A*26:01 [12] = assay: as above; conditions: source organism: Shigella flexneri 5 str. 8401
HLA-B*15:01 [13] = assay: as above; conditions: source organism: Shigella flexneri 5 str. 8401
HLA-B*27:03 = assay: as above; conditions: source organism: Shigella flexneri 5 str. 8401
HLA-A*30:02 = assay: as above; conditions: source organism: Shigella flexneri 5 str. 8401
HLA-B*46:01 [14] = assay: as above; conditions: source organism: Shigella flexneri 5 str. 8401
HLA-B*57:01 [15] = assay: as above; conditions: source organism: Shigella flexneri 5 str. 8401
HLA-B*38:01 = assay: IEDB peptide-MHC binding, purified MHC/direct/fluorescence; filed as Kd, often an IC50 or EC50 that approximates it; ≥ and ≤ were set here for values at or beyond the usual limits of such assays; conditions: source organism: Vibrio cholerae V52
HLA-B*40:01 [16] = assay: as above; conditions: source organism: Vibrio cholerae
HLA-B*58:01 [17] = assay: as above; conditions: source organism: Vibrio cholerae
HLA-B*07:02 [18] = assay: as above; conditions: source organism: Vibrio cholerae
HLA-B*48:01 = assay: as above; conditions: source organism: Vibrio cholerae
HLA-A*69:01 = assay: as above; conditions: source organism: Vibrio cholerae
HLA-B*27:05 [19] = assay: as above; conditions: source organism: Vibrio cholerae
HLA-A*11:01 [20] = assay: as above; conditions: source organism: Vibrio cholerae
HLA-B*18:01 [21] = assay: as above; conditions: source organism: Vibrio cholerae
HLA-A*03:01 [22] = assay: as above; conditions: source organism: Vibrio cholerae
HLA-A*01:01 [23] = assay: as above; conditions: source organism: Vibrio cholerae
HLA-B*15:17 [24] = assay: as above; conditions: source organism: Vibrio cholerae
HLA-A*02:01 [25] = assay: as above; conditions: source organism: Vibrio cholerae
HLA-B*51:01 [26] = assay: as above; conditions: source organism: Vibrio cholerae
HLA-A*26:01 [27] = assay: as above; conditions: source organism: Vibrio cholerae V52
HLA-A*31:01 = assay: as above; conditions: source organism: Vibrio cholerae
HLA-B*15:01 [28] = assay: as above; conditions: source organism: Vibrio cholerae
HLA-B*46:01 [29] = assay: as above; conditions: source organism: Vibrio cholerae
HLA-B*39:01 = assay: as above; conditions: source organism: Vibrio cholerae V52
HLA-B*57:01 [30] = assay: as above; conditions: source organism: Vibrio cholerae
[31] = source organism: Shigella flexneri 5 str. 8401
[32] = source organism: Vibrio cholerae V52

FGALFMWLL was tested, and the Kd (HLA-A*30:01; [31]) was ≥ 5 µM, the Kd (HLA-A*02:03) was ≥ 20 µM and the Kd (HLA-A*02:19) was ≥ 20 µM. The Kd (HLA-B*40:01 [1]) was ≥ 5 µM, the Kd (HLA-B*14:02) was ≥ 5 µM and the Kd (HLA-B*53:01) was ≥ 5 µM. The Kd (HLA-B*08:01; [31]) was ≥ 5 µM, the Kd (HLA-B*44:02) was ≥ 5 µM and the Kd (HLA-B*58:01 [2]) was ≥ 5 µM. The Kd (HLA-A*29:02) was 0.138 µM, the Kd (HLA-B*07:02 [3]) was ≥ 5 µM and the Kd (HLA-B*27:05 [4]) was ≥ 5 µM. For the same sequence, the Kd (HLA-A*11:01 [5]) was ≥ 5 µM, the Kd (HLA-A*66:01) was ≥ 5 µM and the Kd (HLA-B*18:01 [6]) was ≥ 20 µM. For the same sequence, the Kd (HLA-A*03:01 [7]) was ≥ 20 µM, the Kd (HLA-A*01:01 [8]) was ≥ 5 µM and the Kd (HLA-B*15:17 [9]) was ≥ 20 µM. The Kd (HLA-A*68:02) was 0.741 µM, the Kd (HLA-A*02:01 [10]) was ≥ 20 µM and the Kd (HLA-B*51:01 [11]) was ≥ 20 µM. The Kd (HLA-A*26:01 [12]) was ≥ 20 µM, the Kd (HLA-B*15:01 [13]) was ≥ 20 µM and the Kd (HLA-B*27:03) was ≥ 20 µM. For the same sequence, the Kd (HLA-A*30:02) was ≥ 5 µM, the Kd (HLA-B*46:01 [14]) was ≥ 20 µM and the Kd (HLA-B*57:01 [15]) was ≥ 20 µM.
With IVKQGRDAL the Kd (HLA-A*30:01; [32]) was ≥ 20 µM, the Kd (HLA-B*08:01; [32]) was 1.46 µM and the Kd (HLA-B*38:01) was ≥ 20 µM. The Kd (HLA-B*40:01 [16]) was ≥ 20 µM, the Kd (HLA-B*58:01 [17]) was ≥ 20 µM and the Kd (HLA-B*07:02 [18]) was 0.226 µM. For the same sequence, the Kd (HLA-B*48:01) was ≥ 20 µM, the Kd (HLA-A*69:01) was ≥ 20 µM and the Kd (HLA-B*27:05 [19]) was ≥ 20 µM. The Kd (HLA-A*11:01 [20]) was ≥ 20 µM, the Kd (HLA-B*18:01 [21]) was ≥ 20 µM and the Kd (HLA-A*03:01 [22]) was ≥ 20 µM. For the same sequence, the Kd (HLA-A*01:01 [23]) was ≥ 20 µM, the Kd (HLA-B*15:17 [24]) was ≥ 20 µM and the Kd (HLA-A*02:01 [25]) was ≥ 20 µM. The Kd (HLA-B*51:01 [26]) was ≥ 20 µM, the Kd (HLA-A*26:01 [27]) was ≥ 20 µM and the Kd (HLA-A*31:01) was ≥ 20 µM. For the same sequence, the Kd (HLA-B*15:01 [28]) was 1.34 µM, the Kd (HLA-B*46:01 [29]) was ≥ 20 µM and the Kd (HLA-B*39:01) was ≥ 20 µM. The Kd (HLA-B*57:01 [30]) was ≥ 20 µM.
